The text below walks through data of article PMC10247153, “Chromatin Sensing by the Auxiliary Domains of KDM5C Regulates Its Demethylase Activity and Is Disrupted by X-linked Intellectual Disability Mutations” (Journal of molecular biology, 2022).

Where a chain is given by its changes, count along the chain named. No end group written: not given here. Me3 = trimethyl; Me2 = dimethyl

Details in all cases: both partners purified
In assay [1] the target is T1, PHD1 (KDM5C residues 318–378) (human, UniProt P41229-1 318-378).
T1 construct: KDM5C, human, PHD1 domain, residues 318-378; 15N-labelled (or 15N,13C) for NMR; also called PHD1 domain of KDM5C; source: E. coli BL21(DE3), M9 minimal medium, purified (Ni-NTA, MonoQ flow-through); not shown: 6xHis, N-terminal, cleaved; SUMO (Smt3), N-terminal, cleaved
T1 sequence (looked up): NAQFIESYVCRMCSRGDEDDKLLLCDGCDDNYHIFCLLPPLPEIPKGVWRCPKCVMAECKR
In words: NMR titration; 2D 1H-15N HSQC of 200 μM 15N-PHD1 with increasing peptide up to 1:5 PHD1:peptide; 50 mM HEPES pH 7.5, 50 mM KCl, 5 mM BME, 50 μM ZnCl2, 5% D2O, 298 K; Kd from chemical shift change of one residue (I361 or D343), quadratic binding equation.

A further assay concerns the target T2, Avitag-PHD1 (human, UniProt P41229-1 318-378, biotin on the Avitag (BirA co-expression)).
T2 construct: KDM5C, human, PHD1 domain, residues 318-378; 6xHis-SUMO-Avitag-(GS)2-PHD1 before cleavage by SenP1; also called biotinylated Avitag-PHD1; Avitag-(GS)2-PHD1; source: E. coli BL21(DE3), co-expressed with BirA, purified (Ni-NTA, MonoQ flow-through); not shown: 6xHis, N-terminal, cleaved; SUMO (Smt3), N-terminal, cleaved; Avitag-(GS)2, N-terminal, kept
T2 sequence (looked up): T1 sequence (looked up)
In words: BLI; biotinylated Avitag-PHD1 (100 nM) loaded on streptavidin biosensors; 100 μM peptide; 50 mM HEPES pH 8, 50 mM KCl, 50 μM ZnCl2, 5 mM BME, 0.05% Tween-20; 25 °C; two phase exponential fit.

Another assay concerns the target T3, PHD1 D343A mutant (human, UniProt P41229-1 318-378, D343A).
T3 construct: KDM5C, human, PHD1 domain, residues 318-378 (limits as told for wild-type PHD1)
T3 sequence (looked up): T1 sequence (looked up) with D26A
Put plainly: NMR titration; 2D 1H-15N HSQC of 200 μM 15N-PHD1 with increasing peptide up to 1:5 PHD1:peptide; 50 mM HEPES pH 7.5, 50 mM KCl, 5 mM BME, 50 μM ZnCl2, 5% D2O, 298 K; Kd from chemical shift change of one residue (I361 or D343), quadratic binding equation.

B1: H3K4me2 (1–18) peptide (peptide, UniProt P68431 2-19, looked up)
peptide: ARTK(Me2)QTARKSTGGKAPRK
notes: histone H3 N-terminal tail, residues 1-18; source: synthetic peptide (GenScript)
Turning to B1, the binding result in assay [1] was “binds”.

B2: H3K4me1 (1–18) peptide (peptide, UniProt P68431 2-19, looked up)
peptide: ARTK(Me)QTARKSTGGKAPRK
notes: as for B1
Consider B2, for which, in assay [1], the binding result was “binds”.

Turning to Ac-QSVQPSKFNSYGRRAKRLQP-NH2 (source: synthetic peptide (GenScript)) [KDM5C (199–218) peptide], the “fold lower affinity than the H3 tail” value in assay [1] was about 3 fold.

B3: KDM5C (295–314) peptide (peptide)
peptide: Ac-KEELSHSPEPCTKMTMRLRR-NH2
notes: KDM5C, human, ARID-PHD1 linker, residues 295-314; source: synthetic peptide (GenScript)
On to B3, for which, in the assay with Avitag-PHD1, the binding result was “binds”.

B4: H3 (1–18) tail peptide (peptide, UniProt P68431 2-19, looked up)
peptide: ARTKQTARKSTGGKAPRK
notes: histone H3 N-terminal tail, residues 1-18; also called H3 (1–18) peptide; H3K4me0 (1–18); source: synthetic peptide (GenScript)
With B4, the dissociation constant Kd in assay [1] turned out to be 130 µM. Further, the “fold decrease in affinity against wild-type PHD1” value with PHD1 D343A mutant is at least 10 fold.

B5: H3K4me3 (1–18) peptide (peptide, UniProt P68431 2-19, looked up)
peptide: ARTK(Me3)QTARKSTGGKAPRK
notes: as for B1
As to B5, the binding result in assay [1] was “binds”.
